What was measured:
Experiment in all cases: ELISA on coated recombinant spike trimer
[1] = target: T1, Trimeric MERS-CoV spike ectodomain (tri-S) (MERS-CoV, UniProt K9N5Q8 18-1296)
T1 construct: extracellular domain
T1 sequence: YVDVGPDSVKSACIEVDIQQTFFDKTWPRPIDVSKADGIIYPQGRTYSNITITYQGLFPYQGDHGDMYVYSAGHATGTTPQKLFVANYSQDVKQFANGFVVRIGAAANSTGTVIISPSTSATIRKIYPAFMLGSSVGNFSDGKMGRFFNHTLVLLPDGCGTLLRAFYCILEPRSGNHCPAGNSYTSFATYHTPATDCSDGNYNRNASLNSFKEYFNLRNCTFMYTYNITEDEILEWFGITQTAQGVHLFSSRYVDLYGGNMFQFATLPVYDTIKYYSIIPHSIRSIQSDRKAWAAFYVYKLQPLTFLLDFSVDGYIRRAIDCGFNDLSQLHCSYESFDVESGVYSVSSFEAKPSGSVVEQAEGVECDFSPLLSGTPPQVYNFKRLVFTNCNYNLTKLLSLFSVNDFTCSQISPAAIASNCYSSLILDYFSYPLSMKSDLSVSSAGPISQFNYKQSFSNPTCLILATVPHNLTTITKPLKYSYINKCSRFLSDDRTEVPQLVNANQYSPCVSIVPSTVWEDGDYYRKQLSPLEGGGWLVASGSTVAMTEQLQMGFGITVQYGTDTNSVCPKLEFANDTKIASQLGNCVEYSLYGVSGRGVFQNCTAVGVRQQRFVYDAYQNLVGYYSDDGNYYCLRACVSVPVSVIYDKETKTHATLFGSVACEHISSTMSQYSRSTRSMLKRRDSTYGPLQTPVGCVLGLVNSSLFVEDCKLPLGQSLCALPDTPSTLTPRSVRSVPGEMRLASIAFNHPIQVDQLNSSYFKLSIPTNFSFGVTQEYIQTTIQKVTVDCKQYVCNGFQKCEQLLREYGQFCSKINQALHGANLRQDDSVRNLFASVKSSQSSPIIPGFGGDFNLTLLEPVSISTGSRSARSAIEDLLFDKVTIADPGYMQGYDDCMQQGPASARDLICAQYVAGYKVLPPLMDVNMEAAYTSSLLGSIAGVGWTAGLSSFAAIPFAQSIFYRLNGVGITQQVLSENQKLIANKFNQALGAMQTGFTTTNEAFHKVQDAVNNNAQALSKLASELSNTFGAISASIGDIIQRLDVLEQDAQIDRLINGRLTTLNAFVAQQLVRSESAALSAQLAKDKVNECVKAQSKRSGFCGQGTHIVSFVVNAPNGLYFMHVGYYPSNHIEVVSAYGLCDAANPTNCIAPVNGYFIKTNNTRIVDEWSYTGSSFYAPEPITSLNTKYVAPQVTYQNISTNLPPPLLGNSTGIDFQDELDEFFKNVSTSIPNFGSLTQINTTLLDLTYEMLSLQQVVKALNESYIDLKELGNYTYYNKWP

[2] = target: T2, Trimeric HKU1-CoV spike ectodomain (tri-S) (HKU1-CoV, UniProt Q5MQD0 13-1300)
T2 construct: extracellular domain
T2 sequence: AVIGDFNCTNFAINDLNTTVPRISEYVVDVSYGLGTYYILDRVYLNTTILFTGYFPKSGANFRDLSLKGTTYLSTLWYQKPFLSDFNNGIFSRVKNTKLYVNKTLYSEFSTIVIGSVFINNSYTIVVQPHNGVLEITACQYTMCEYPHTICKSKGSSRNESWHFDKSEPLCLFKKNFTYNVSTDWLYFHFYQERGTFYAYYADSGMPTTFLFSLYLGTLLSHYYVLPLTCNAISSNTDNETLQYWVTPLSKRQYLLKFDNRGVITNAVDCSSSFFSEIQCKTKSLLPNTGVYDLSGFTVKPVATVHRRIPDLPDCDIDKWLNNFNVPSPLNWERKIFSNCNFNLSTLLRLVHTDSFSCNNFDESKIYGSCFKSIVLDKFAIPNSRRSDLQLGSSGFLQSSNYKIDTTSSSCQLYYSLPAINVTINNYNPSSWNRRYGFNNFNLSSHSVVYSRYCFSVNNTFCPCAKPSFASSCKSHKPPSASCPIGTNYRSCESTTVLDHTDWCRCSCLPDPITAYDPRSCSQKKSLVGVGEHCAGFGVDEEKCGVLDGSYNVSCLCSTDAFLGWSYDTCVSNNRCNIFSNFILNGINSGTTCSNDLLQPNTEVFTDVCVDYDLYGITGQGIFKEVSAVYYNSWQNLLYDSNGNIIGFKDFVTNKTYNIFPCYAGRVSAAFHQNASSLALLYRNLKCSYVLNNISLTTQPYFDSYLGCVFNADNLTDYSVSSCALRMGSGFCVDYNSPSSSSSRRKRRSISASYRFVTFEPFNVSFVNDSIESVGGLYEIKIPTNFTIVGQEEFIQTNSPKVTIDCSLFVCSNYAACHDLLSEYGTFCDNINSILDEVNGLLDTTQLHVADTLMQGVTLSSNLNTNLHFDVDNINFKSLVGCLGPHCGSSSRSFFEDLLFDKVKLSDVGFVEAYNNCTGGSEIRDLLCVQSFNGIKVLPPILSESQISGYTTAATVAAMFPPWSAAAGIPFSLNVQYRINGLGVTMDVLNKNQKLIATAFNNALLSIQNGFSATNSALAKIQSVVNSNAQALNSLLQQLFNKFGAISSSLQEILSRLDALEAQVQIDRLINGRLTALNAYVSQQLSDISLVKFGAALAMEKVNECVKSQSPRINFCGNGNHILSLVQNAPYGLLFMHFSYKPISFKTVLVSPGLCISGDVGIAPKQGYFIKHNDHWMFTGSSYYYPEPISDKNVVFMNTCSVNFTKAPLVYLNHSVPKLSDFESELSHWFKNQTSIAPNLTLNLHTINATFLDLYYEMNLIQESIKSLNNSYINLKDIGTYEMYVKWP

[3] = target: T3, Trimeric OC43-CoV spike ectodomain (tri-S) (OC43-CoV, UniProt P36334 14-1297)
T3 construct: extracellular domain
T3 sequence: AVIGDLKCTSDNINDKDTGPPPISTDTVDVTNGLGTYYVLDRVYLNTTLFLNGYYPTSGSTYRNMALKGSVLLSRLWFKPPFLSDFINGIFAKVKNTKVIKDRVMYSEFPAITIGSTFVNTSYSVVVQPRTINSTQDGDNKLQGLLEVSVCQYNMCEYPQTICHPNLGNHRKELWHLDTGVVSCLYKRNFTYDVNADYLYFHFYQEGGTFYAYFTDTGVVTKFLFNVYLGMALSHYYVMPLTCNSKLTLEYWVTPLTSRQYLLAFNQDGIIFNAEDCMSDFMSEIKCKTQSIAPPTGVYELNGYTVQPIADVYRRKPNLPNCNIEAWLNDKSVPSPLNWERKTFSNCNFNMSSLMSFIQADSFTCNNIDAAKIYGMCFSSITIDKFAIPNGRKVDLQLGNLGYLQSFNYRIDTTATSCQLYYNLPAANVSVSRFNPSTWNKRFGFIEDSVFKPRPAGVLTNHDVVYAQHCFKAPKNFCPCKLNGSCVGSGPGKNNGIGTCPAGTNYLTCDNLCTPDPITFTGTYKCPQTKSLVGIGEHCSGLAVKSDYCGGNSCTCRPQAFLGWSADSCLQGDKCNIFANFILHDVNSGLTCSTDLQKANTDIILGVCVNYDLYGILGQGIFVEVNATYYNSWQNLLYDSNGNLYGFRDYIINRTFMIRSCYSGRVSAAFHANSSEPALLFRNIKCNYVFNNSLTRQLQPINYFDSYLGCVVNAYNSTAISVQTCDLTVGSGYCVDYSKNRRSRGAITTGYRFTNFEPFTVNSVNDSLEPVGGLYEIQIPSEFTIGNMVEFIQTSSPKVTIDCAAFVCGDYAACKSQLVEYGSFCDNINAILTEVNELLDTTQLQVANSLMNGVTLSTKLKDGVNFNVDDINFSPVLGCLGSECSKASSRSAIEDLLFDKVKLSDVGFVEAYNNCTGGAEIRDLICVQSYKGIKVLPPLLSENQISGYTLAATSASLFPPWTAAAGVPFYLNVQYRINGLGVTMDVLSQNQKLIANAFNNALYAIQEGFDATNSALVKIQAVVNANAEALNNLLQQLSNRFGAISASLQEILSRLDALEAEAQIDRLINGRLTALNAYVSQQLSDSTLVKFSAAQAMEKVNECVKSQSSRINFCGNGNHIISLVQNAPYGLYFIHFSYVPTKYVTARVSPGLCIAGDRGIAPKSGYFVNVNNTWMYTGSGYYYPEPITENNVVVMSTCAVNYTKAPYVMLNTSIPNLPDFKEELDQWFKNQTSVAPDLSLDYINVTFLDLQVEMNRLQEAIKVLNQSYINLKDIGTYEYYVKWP

[4] = target: T4, Trimeric 229E-CoV spike ectodomain (tri-S) (229E-CoV, UniProt P15423 16-1115)
T4 construct: extracellular domain
T4 sequence: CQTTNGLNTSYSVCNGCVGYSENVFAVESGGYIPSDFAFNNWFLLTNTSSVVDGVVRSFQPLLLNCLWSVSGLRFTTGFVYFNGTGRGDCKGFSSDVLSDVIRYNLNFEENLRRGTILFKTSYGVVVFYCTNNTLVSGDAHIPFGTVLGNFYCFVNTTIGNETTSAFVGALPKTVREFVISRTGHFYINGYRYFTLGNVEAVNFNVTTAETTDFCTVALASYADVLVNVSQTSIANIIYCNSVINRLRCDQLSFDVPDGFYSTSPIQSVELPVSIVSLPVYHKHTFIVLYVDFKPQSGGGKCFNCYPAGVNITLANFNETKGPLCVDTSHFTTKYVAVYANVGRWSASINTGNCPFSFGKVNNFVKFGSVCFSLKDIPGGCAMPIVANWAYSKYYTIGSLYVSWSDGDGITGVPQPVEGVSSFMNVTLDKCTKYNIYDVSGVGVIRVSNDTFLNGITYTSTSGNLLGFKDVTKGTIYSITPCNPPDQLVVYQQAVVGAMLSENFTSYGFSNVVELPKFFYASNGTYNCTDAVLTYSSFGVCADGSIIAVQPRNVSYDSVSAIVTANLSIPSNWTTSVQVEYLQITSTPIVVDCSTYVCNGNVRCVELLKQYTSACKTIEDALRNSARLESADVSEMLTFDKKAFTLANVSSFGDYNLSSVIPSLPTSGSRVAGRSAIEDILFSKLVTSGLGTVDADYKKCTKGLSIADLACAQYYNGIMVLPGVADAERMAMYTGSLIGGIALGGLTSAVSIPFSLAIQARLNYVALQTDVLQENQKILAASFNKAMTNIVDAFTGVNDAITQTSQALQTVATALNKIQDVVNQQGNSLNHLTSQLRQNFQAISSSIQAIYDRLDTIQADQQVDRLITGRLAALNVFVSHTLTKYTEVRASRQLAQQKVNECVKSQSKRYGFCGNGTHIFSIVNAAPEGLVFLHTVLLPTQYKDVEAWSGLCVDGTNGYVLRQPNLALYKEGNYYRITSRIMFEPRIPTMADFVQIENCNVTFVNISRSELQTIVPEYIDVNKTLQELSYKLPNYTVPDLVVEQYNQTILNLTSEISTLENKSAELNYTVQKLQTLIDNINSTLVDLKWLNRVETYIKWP

Measured: binding result

B1: Cv2.3132 IgG antibody (antibody, V domains shown)
VH: EVQLVESGGGLVKPGGSLRLSCAASGFTFSDYYMSWIRQAPGKGLEWVSYISSSGSVQYYADSVKGRFTISRDNAKNSLYLQMNSLRAEDTAVYYCARYYYDSSGYWKRLDYWGQGTLVTVSS
VL: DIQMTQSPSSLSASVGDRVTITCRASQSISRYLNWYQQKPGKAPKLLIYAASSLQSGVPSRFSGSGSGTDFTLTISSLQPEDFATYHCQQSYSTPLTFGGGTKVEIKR
notes: also called anti-HR2 antibody Cv2.3132
no binding: [1] | [2] | [3] | [4]

Source: patent EP4442276A1 (INSTITUT PASTEUR, dated 2024)
